Measured values: US20150344570A1 (published 2015)
One block for each binder: values may come before it.

Assays:
[1] = biological target: T1, FcγRIIIa (human, UniProt P08637 17-208); experiment: SPR (Biacore), relative binding
T1 construct: extracellular domain; also called FcgRIIIa; 3a

[2] = biological target: T2, FcγRIIb (human, UniProt P31994 43-217); experiment: SPR (Biacore), relative binding
T2 construct: extracellular domain; also called FcgRIIb; 2b
T2 sequence (looked up): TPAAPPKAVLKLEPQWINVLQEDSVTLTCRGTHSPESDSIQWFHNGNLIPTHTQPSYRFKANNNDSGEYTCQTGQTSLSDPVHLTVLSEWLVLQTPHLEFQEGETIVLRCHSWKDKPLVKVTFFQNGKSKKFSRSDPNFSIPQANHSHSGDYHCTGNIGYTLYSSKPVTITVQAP

T1 sequence (P08637 17-208): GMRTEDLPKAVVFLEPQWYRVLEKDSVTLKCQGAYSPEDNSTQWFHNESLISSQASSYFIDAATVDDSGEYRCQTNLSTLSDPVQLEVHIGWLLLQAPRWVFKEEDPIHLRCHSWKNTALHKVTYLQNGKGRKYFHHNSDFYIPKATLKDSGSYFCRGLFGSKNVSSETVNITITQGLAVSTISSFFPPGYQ

He/Con_3a [1]: 90.8 % of GpH7-A5/GpH7-B3/GpL16-k0
He/Con_2b [2]: 111 % of GpH7-A5/GpH7-B3/GpL16-k0
B1: GpH7-A5/GpH7-B3 variant K334_12R/GpL16-k0 (antibody, human IgG1, kappa)
heavy 1: not shown
heavy 2: not shown
light: DIVMTQSPLSLPVTPGEPASISCQASESLVHSNRNTYLHWYLQKPGQSPQLLIYKVSNRFSGVPDRFSGSGSGTDFTLKISRVEAEDVGVYYCSQNTHVPPTFGQGTKVEIERTVAAPSVFIFPPSDEQLKSGTASVVCLLNNFYPREAKVQWKVDNALQSGNSQESVTEQDSKDSTYSLSSTLTLSKADYEKHKVYACEVTHQGLSSPVTKSFNRGEC
notes: mutation in the GpH7-B3 chain only; also called He Ab

He/Con_3a [1]: 79.3 % of GpH7-A5/GpH7-B3/GpL16-k0
He/Con_2b [2]: 219 % of GpH7-A5/GpH7-B3/GpL16-k0
B4: GpH7-A5/GpH7-B3 variant L328_04F/GpL16-k0 (antibody, human IgG1, kappa)
heavy 1: not shown
heavy 2: not shown
light: DIVMTQSPLSLPVTPGEPASISCQASESLVHSNRNTYLHWYLQKPGQSPQLLIYKVSNRFSGVPDRFSGSGSGTDFTLKISRVEAEDVGVYYCSQNTHVPPTFGQGTKVEIERTVAAPSVFIFPPSDEQLKSGTASVVCLLNNFYPREAKVQWKVDNALQSGNSQESVTEQDSKDSTYSLSSTLTLSKADYEKHKVYACEVTHQGLSSPVTKSFNRGEC
notes: as for B1

He/Con_3a [1]: 84 % of GpH7-A5/GpH7-B3/GpL16-k0
He/Con_2b [2]: 160 % of GpH7-A5/GpH7-B3/GpL16-k0
B6: GpH7-A5/GpH7-B3 variant L328_07I/GpL16-k0 (antibody, human IgG1, kappa)
heavy 1: not shown
heavy 2: not shown
light: DIVMTQSPLSLPVTPGEPASISCQASESLVHSNRNTYLHWYLQKPGQSPQLLIYKVSNRFSGVPDRFSGSGSGTDFTLKISRVEAEDVGVYYCSQNTHVPPTFGQGTKVEIERTVAAPSVFIFPPSDEQLKSGTASVVCLLNNFYPREAKVQWKVDNALQSGNSQESVTEQDSKDSTYSLSSTLTLSKADYEKHKVYACEVTHQGLSSPVTKSFNRGEC
notes: as for B1

He/Con_3a [1]: 53.4 % of GpH7-A5/GpH7-B3/GpL16-k0
He/Con_2b [2]: 172 % of GpH7-A5/GpH7-B3/GpL16-k0
B8: GpH7-A5/GpH7-B3 variant L328_10E/GpL16-k0 (antibody, human IgG1, kappa)
heavy 1: not shown
heavy 2: not shown
light: DIVMTQSPLSLPVTPGEPASISCQASESLVHSNRNTYLHWYLQKPGQSPQLLIYKVSNRFSGVPDRFSGSGSGTDFTLKISRVEAEDVGVYYCSQNTHVPPTFGQGTKVEIERTVAAPSVFIFPPSDEQLKSGTASVVCLLNNFYPREAKVQWKVDNALQSGNSQESVTEQDSKDSTYSLSSTLTLSKADYEKHKVYACEVTHQGLSSPVTKSFNRGEC
notes: as for B1

He/Con_3a [1]: 71.7 % of GpH7-A5/GpH7-B3/GpL16-k0
He/Con_2b [2]: 149 % of GpH7-A5/GpH7-B3/GpL16-k0
B9: GpH7-A5/GpH7-B3 variant L328_13S/GpL16-k0 (antibody, human IgG1, kappa)
heavy 1: not shown
heavy 2: not shown
light: DIVMTQSPLSLPVTPGEPASISCQASESLVHSNRNTYLHWYLQKPGQSPQLLIYKVSNRFSGVPDRFSGSGSGTDFTLKISRVEAEDVGVYYCSQNTHVPPTFGQGTKVEIERTVAAPSVFIFPPSDEQLKSGTASVVCLLNNFYPREAKVQWKVDNALQSGNSQESVTEQDSKDSTYSLSSTLTLSKADYEKHKVYACEVTHQGLSSPVTKSFNRGEC
notes: as for B1

Continued, binder first:

B2: GpH7-A5/GpH7-B3 variant L328_02A/GpL16-k0 (antibody, human IgG1, kappa)
heavy 1: not shown
heavy 2: not shown
light: DIVMTQSPLSLPVTPGEPASISCQASESLVHSNRNTYLHWYLQKPGQSPQLLIYKVSNRFSGVPDRFSGSGSGTDFTLKISRVEAEDVGVYYCSQNTHVPPTFGQGTKVEIERTVAAPSVFIFPPSDEQLKSGTASVVCLLNNFYPREAKVQWKVDNALQSGNSQESVTEQDSKDSTYSLSSTLTLSKADYEKHKVYACEVTHQGLSSPVTKSFNRGEC
notes: as for B1
He/Con_3a [1]: 79.1 % of GpH7-A5/GpH7-B3/GpL16-k0
He/Con_2b [2]: 144 % of GpH7-A5/GpH7-B3/GpL16-k0

B3: GpH7-A5/GpH7-B3 variant L328_03V/GpL16-k0 (antibody, human IgG1, kappa)
heavy 1: not shown
heavy 2: not shown
light: DIVMTQSPLSLPVTPGEPASISCQASESLVHSNRNTYLHWYLQKPGQSPQLLIYKVSNRFSGVPDRFSGSGSGTDFTLKISRVEAEDVGVYYCSQNTHVPPTFGQGTKVEIERTVAAPSVFIFPPSDEQLKSGTASVVCLLNNFYPREAKVQWKVDNALQSGNSQESVTEQDSKDSTYSLSSTLTLSKADYEKHKVYACEVTHQGLSSPVTKSFNRGEC
notes: as for B1
He/Con_3a [1]: 78.7 % of GpH7-A5/GpH7-B3/GpL16-k0
He/Con_2b [2]: 126 % of GpH7-A5/GpH7-B3/GpL16-k0

B5: GpH7-A5/GpH7-B3 variant L328_06M/GpL16-k0 (antibody, human IgG1, kappa)
heavy 1: not shown
heavy 2: not shown
light: DIVMTQSPLSLPVTPGEPASISCQASESLVHSNRNTYLHWYLQKPGQSPQLLIYKVSNRFSGVPDRFSGSGSGTDFTLKISRVEAEDVGVYYCSQNTHVPPTFGQGTKVEIERTVAAPSVFIFPPSDEQLKSGTASVVCLLNNFYPREAKVQWKVDNALQSGNSQESVTEQDSKDSTYSLSSTLTLSKADYEKHKVYACEVTHQGLSSPVTKSFNRGEC
notes: as for B1
He/Con_3a [1]: 78.6 % of GpH7-A5/GpH7-B3/GpL16-k0
He/Con_2b [2]: 142 % of GpH7-A5/GpH7-B3/GpL16-k0

B7: GpH7-A5/GpH7-B3 variant L328_09D/GpL16-k0 (antibody, human IgG1, kappa)
heavy 1: not shown
heavy 2: not shown
light: DIVMTQSPLSLPVTPGEPASISCQASESLVHSNRNTYLHWYLQKPGQSPQLLIYKVSNRFSGVPDRFSGSGSGTDFTLKISRVEAEDVGVYYCSQNTHVPPTFGQGTKVEIERTVAAPSVFIFPPSDEQLKSGTASVVCLLNNFYPREAKVQWKVDNALQSGNSQESVTEQDSKDSTYSLSSTLTLSKADYEKHKVYACEVTHQGLSSPVTKSFNRGEC
notes: as for B1
He/Con_3a [1]: 47.8 % of GpH7-A5/GpH7-B3/GpL16-k0
He/Con_2b [2]: 199 % of GpH7-A5/GpH7-B3/GpL16-k0
